Data: US20050272633

Molecular target: T1, IL-2 receptor common gamma chain (cγc), full length (1-369), P31785
T1 chain: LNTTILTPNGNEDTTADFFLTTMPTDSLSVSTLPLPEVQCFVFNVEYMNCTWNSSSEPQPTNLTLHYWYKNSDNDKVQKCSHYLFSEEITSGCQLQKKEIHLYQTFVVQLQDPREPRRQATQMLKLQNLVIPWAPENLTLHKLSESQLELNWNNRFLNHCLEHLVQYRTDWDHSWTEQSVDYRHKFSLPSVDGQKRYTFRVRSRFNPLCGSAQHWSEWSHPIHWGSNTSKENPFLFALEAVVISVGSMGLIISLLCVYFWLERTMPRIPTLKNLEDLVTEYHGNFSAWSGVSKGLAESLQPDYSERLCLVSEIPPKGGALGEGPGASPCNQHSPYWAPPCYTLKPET

B1: myc tagged NIK (pcS3MTNIK) (protein)
chain: MAVMEMACPGAPGSAVGQQKELPKAKEKTPPLGKKQSSVYKLEAVEKSPVFCGKWEILNDVITKGTAKEGSEAGPAAISIIAQAECENSQEFSPTFSERIFIAGSKQYSQSESLDQIPNNVAHATEGKMARVCWKGKRRSKARKKRKKKSSKSLAHAGVALAKPLPRTPEQESCTIPVQEDESPLGAPYVRNTPQFTKPLKEPGLGQLCFKQLGEGLRPALPRSELHKLISPLQCLNHVWKLHHPQDGGPLPLPTHPFPYSRLPHPFPFHPLQPWKPHPLESFLGKLACVDSQKPLPDPHLSKLACVDSPKPLPGPHLEPSCLSRGAHEKFSVEEYLVHALQGSVSSGQAHSLTSLAKTWAARGSRSREPSPKTEDNEGVLLTEKLKPVDYEYREEVHWATHQLRLGRGSFGEVHRMEDKQTGFQCAVKKVRLEVFRAEELMACAGLTSPRIVPLYGAVREGPWVNIFMELLEGGSLGQLVKEQGCLPEDRALYYLGQALEGLEYLHSRRILHGDVKADNVLLSSDGSHAALCDFGHAVCLQPDGLGKSLLTGDYIPGTETHMAPEVVLGRSCDAKVDVWSSCCMMLHMLNGCHPWTQFFRGPLCLKIASEPPPVREIPPSCAPLTAQAIQEGLRKEPIHRVSAAELGGKVNRALQQVGGLKSPWRGEYKEPRHPPPNQANYHQTLHAQPRELSPRAPGPRPAEETTGRAPKLQPPLPPEPPEPNKSPPLTLSKEESGMWEPLPLSSLEPAPARNPSSPERKATVPEQELQQLEIELFLNSLSQPFSLEEQEQILSCLSIDSLSLSDDSEKNPSKASQSSRDTLSSGVHSWSSQAEARSSSWNMVLARGRPTDTPSYFNGVKVQIQSLNGEHLHIREFHRVKVGDIATGISSQIPAAAFSLVTKDGQPVRYDMEVPDSGIDLQCTLAPDGSFAWSWRVKHGQLENRP
  in vitro kinase assay of anti NIK immunoprecipitates: NIK self- and IKK1-phosphorylation: A three fold increase in phosphorylation of NIK self- and IKK1-phosphorylation was observed in the presence of cγc
